According to US8586538B2, “Method of treating a patient suffering from a bleeding disorder comprising administering an antibody against the A3-C1 of FVIII” (Stichting Sanquin Bloedvoorziening, priority 2002, dated 2013):

Molecular target: T1, interaction between FVIII light chain and LRP cluster II (Homo sapiens, UniProt P00451)
T1 construct: Recombinant LRP clusters II or IV (1 pmol/well) were adsorbed onto microtiter wells; made in house; host or cells: LRP cluster II: BHK cells; FVIII light chain: plasma-derived
T1 sequence (P00451 1668-2351): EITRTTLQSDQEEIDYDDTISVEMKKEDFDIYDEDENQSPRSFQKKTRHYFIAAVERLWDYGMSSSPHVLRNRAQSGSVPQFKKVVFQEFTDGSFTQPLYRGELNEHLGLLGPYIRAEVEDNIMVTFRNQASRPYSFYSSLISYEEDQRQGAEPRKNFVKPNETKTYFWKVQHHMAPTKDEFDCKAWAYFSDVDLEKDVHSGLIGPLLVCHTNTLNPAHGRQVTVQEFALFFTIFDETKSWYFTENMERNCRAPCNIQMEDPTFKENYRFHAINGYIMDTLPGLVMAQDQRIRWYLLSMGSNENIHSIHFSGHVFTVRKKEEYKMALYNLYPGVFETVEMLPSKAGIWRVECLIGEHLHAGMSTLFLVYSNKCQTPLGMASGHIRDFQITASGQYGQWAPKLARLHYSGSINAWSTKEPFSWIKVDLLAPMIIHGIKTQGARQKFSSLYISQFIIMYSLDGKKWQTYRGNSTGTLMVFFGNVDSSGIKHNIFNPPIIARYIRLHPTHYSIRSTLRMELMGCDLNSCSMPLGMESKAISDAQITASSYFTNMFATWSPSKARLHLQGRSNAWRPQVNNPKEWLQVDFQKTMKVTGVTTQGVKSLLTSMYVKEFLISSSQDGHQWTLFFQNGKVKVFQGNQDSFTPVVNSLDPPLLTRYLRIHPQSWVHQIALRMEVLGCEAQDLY
Assay: Solid-phase competition: FVIII light chain binding to immobilized LRP cluster II
Details: FVIII light chain 25 nM
Protocol: FIG. 4. Effect of scFv antibody fragments on the interaction between FVIII light chain and LRP. A, FVIII light chain (LCh) (25 nM) was incubated with immobilized LRP cluster II (1 pmol/well) in a volume of 50 μl in 150 mM NaCl, 5 mM CaCl2, 1% (w/v) HSA, 0.1% Tween® 20, and 50 mM Tris (pH 7.4) in the presence of various concentrations (0-100 nM) of scFv KM41 (closed circles) or scFv KM36 (open circles) for 2 h at 37° C. After washing with the same buffer, bound FVIII light chain was quantified by incubation with peroxidase-conjugated anti-FVIII antibody CLB-CAg 12 for 15 min at 37° C. Residual binding is expressed as the percentage of binding in the absence of competitor and is corrected for nonspecific binding (less than 5% relative to binding to LRP cluster II-immobilized wells). Data represent the mean±S.D. of three experiments. B, FVIII light chain (50 nM) was incubated with immobilized LRP (16 fmol/mm^2) as described in the legend of FIG. 1. Binding was assessed in the absence (curve 1) or in the presence of increasing concentrations of scFv KM41 (20, 60, 300, 500 nM, curves 2-5, respectively). Complexes were allowed to form for 30 min before SPR analysis.
FIG. 5. Effect of scFv KM33 on the interaction between FVIII light chain and LRP. FVIII light chain (LCh) (25 nM) was incubated with immobilized LRP cluster II (1 pmol/well) in a volume of 50 μl in 150 mM NaCl, 5 mM CaCl2, 1% (w/v) HSA, 0.1% Tween® 20, and 50 mM Tris (pH 7.4) in the presence of various concentrations (0-30 nM) of scFv KM36 (open circles) or scFv KM33 (closed circles) for 2 h at 37° C. After washing with the same buffer, bound FVIII Light chain was quantified by incubation with peroxidase-conjugated anti-FVIII antibody CLB-CAg 12 for 15 min at 37° C. Residual binding is expressed as the percentage of binding in the absence of competitor and is corrected for nonspecific binding (less than 5% relative to binding to cluster-coated wells). Data represent the mean±S.D. of three experiments.
Recombinant LRP clusters II or IV (1 pmol/well) were adsorbed onto microtiter wells in 50 mM NaHCO3 (pH 9.8) in a volume of 50 μl for 16 h at 4° C. Wells were blocked with 2% (w/v) HSA, 150 mM NaCl, 5 mM CaCl2, and 50 mM Tris (pH 7.4) in a volume of 200 μl for 1 h at 37° C. After three rapid washes (less than 5 seconds each) with 150 mM NaCl, 5 mM CaCl2, 0.1% (v/v) Tween® 20, and 50 mM Tris (pH 7.4), FVIII light chain or its derivatives were incubated at various concentrations in a volume of 50 μl in a buffer containing 150 mM NaCl, 5 mM CaCl2, 1% (w/v) HSA, 0.1% (v/v) Tween® 20, and 50 mM Tris (pH 7.4) for 2 h. at 37° C. Bound ligand was detected by incubating with peroxidase-conjugated monoclonal antibody CLB-CAg 12 in the same buffer for 15 min at 37° C. […] In competition experiments, FVIII light chain (25 nM) was incubated with wells containing immobilized LRP clusters, either in the presence or absence of serial dilutions of competitor in a volume of 50 μl for 2 h at 37° C. Residual FVIII binding was detected as described above. Data were corrected for binding to empty microtiter wells, which was less than 5% relative to binding to wells containing immobilized LRP clusters.
(Note to Table II: Effect of FVIII a3-A3-C1 fragment derived synthetic peptides on the interaction between FVIII light chain and LRP cluster II. FVIII light chain (25 nM) was incubated with immobilized LRP cluster II (1 pmol/well) in a volume of 50 μl in 150 mM NaCl, 5 mM CaCl2, 1% (w/v) HSA, 0.1% Tween® 20, and 50 mM Tris (pH 7.4) in the presence or absence of various concentrations of synthetic peptide (0-1 mM) for 2 h at 37° C. After washing with the same buffer, bound FVIII light chain was quantified by incubation with peroxidase-conjugated anti-FVIII antibody CLB-CAg 12 for 15 min at 37° C. Half-maximum inhibition constants (IC50) represent the mean values±S.D. of three experiments.)

B1: scFv KM41: scFv antibody fragment directed against FVIII region Arg^1803-Lys^1818 (protein)
scFv: QVQLLQSAADVKKPGASVKVSCTASGYIFTSYDIDWVRQATGQGLEWMGWMNPNSGNAGFAQKFKGRLTLTRDTSTSTAYMELRRLESEDTAVYYCARSTPHSYSGSGLPPTSDSWGQGTLVTVSSGGGGSGGGGSGGGGSEIVLTQSPGTLSLSPGERATLSCRASQSVSSSFLGWYQQKPGQAPRLLIYGASSRATGIPDRFSGSGSGTDFTLTISRLEPEDFAVYYCQQYGISPLTFGGGTKLEIKRAAAEQKLISEEDLNGAAHHHHHH
With B1 the “Effect on binding of FVIII light chain to immobilized LRP cluster II” value was “inhibited the binding”.
